Results from US20060292689A1.

Target: CCR-2 (human) (UniProt P41597)
Assay: cell-based or functional assay

Sequence of CCR-2 (human) (P41597 whole entry): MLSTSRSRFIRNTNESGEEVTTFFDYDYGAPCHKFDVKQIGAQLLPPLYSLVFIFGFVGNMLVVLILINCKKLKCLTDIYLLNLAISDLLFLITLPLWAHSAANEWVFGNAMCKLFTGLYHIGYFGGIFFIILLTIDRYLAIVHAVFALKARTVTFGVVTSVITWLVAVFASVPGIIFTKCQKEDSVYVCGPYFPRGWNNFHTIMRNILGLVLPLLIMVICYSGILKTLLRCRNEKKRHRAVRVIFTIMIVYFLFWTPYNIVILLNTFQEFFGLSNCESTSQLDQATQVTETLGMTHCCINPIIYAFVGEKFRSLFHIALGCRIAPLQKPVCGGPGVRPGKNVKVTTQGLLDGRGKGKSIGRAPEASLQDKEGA

mean fluorescence intensity of CaR expression on monocytes: 673 units
Substance: MCP-1 (from UniProt P13500 24-99) (ligand)
